This note sets out measurements from publication PMC7060403 (Journal of molecular biology, 2019).

The target in this experiment is T1, RavP-C (C-terminal region of the rabies virus phosphoprotein, residues 140-297) (rabies virus, UniProt P22363 140-297).
T1 sequence: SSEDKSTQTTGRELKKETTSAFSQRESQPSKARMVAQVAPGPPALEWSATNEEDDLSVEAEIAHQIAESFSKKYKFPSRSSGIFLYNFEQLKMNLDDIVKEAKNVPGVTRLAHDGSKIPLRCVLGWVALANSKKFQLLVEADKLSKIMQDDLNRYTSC
Nature of the experiment: ITC. (In general: Isothermal titration calorimetry measures the heat released or taken up as one component is titrated into another.)

B1: LC8 from Drosophila melanogaster (natural protein, UniProt Q24117 1-89, looked up)
chain: MSDRKAVIKNADMSEEMQQDAVDCATQALEKYNIEKDIAAYIKKEFDKKYNPTWHCIVGRNFGSYVTHETRHFIYFYLGQVAILLFKSG
Broadly, the Kd is the concentration at which binding is half-saturated. The low end stands for higher affinity, the high end for lower affinity. For B1, binding was characterised by a dissociation constant (Kd) of 4.19 µM.
